Source: article doi:10.1101/2025.11.26.690709

Tests used:
[1] = target: CHIP-myc ΔStartCodon (c.3G>A) (human) (UniProt Q9UNE7); test: native gel or EMSA
[2] = target: CHIP Y230Cfs*9, recombinant (human) (UniProt Q9UNE7); test: mass photometry
[3] = target: T1, CHIP-myc wild type (human), Q9UNE7; test: native gel or EMSA; conditions: remark: other sources report otherwise
T1 chain: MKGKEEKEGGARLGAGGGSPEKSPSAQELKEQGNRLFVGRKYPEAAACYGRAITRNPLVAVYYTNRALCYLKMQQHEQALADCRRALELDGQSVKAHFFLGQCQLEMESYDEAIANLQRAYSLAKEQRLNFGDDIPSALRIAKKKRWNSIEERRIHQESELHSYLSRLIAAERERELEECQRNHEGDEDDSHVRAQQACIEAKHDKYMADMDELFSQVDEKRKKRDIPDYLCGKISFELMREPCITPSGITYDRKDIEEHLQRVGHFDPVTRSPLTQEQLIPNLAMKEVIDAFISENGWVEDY

[4] = target: T2, CHIP-myc K30A (human), Q9UNE7; test: native gel or EMSA; conditions: remark: other sources report otherwise
T2 chain: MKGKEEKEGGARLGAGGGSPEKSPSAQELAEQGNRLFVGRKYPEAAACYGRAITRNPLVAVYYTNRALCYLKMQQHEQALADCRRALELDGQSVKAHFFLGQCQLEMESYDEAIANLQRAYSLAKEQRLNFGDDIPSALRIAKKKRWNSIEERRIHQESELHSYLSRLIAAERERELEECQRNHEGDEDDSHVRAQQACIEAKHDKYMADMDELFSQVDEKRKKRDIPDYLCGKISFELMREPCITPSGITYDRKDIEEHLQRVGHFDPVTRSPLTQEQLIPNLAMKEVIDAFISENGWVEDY

Molecule: CHIP-myc ΔStartCodon (c.3G>A) (from UniProt Q9UNE7-1 1-303) (natural protein)
- stoichiometry N [1]: 2

Molecule: CHIP Y230Cfs*9, recombinant (from UniProt Q9UNE7-1 1-303) (natural protein)
- percent of the protein as dimers [2]: 80%
- stoichiometry N [2]: 2

B1: CHIP-myc wild type, Q9UNE7-1 1-303 (natural protein)
chain: MKGKEEKEGGARLGAGGGSPEKSPSAQELKEQGNRLFVGRKYPEAAACYGRAITRNPLVAVYYTNRALCYLKMQQHEQALADCRRALELDGQSVKAHFFLGQCQLEMESYDEAIANLQRAYSLAKEQRLNFGDDIPSALRIAKKKRWNSIEERRIHQESELHSYLSRLIAAERERELEECQRNHEGDEDDSHVRAQQACIEAKHDKYMADMDELFSQVDEKRKKRDIPDYLCGKISFELMREPCITPSGITYDRKDIEEHLQRVGHFDPVTRSPLTQEQLIPNLAMKEVIDAFISENGWVEDY
- stoichiometry N [3]: 2

B2: CHIP-myc K30A, Q9UNE7-1 1-303 (natural protein)
chain: MKGKEEKEGGARLGAGGGSPEKSPSAQELAEQGNRLFVGRKYPEAAACYGRAITRNPLVAVYYTNRALCYLKMQQHEQALADCRRALELDGQSVKAHFFLGQCQLEMESYDEAIANLQRAYSLAKEQRLNFGDDIPSALRIAKKKRWNSIEERRIHQESELHSYLSRLIAAERERELEECQRNHEGDEDDSHVRAQQACIEAKHDKYMADMDELFSQVDEKRKKRDIPDYLCGKISFELMREPCITPSGITYDRKDIEEHLQRVGHFDPVTRSPLTQEQLIPNLAMKEVIDAFISENGWVEDY
- stoichiometry N [4]: 2
